Source: patent US20250019439A1 (Adimab, published 2025)

B1: ADI-34134 IgG (antibody, V domains shown)
VH: QVQLVQSGAEVKKPGSSVKVSCKASGGTFSSYAISWVRQAPGQGLEWMGGIIPIFGTANYAQKFQGRVTITADESTSTAYMELSSLRSEDTAVYYCARGAPNYYGSGGYDDGWFDPWGQGTLVTVSS
VL: EIVLTQSPGTLSLSPGERATLSCRASQSVSSDYLAWYQQKPGQAPRLLIYGASSRATGIPDRFSGSGSGTDFTLTISRLEPEDFAVYYCQQFGRVPTFGGGTKVEIK
B2: ADI-34145 IgG (antibody, V domains shown)
VH: EVQLLESGGGLVQPGGSLRLSCAASGFTFSSYAMSWVRQAPGKGLEWVSTISGSGGSTYYADSVKGRFTISRDNSKNTLYLQMNSLRAEDTAVYYCARLGGRRGSGSSYYYYYGMDVWGQGTTVTVSS
VL: not shown
notes: anti-ID IgG

What was measured:
CTL-62227 = molecular target: T1, CTL-62227; test: SPR Carterra, CHO anti-ID
T1 construct: also called odronextamab
T1 sequence (VH, as listed by the source, chain 1 of 2): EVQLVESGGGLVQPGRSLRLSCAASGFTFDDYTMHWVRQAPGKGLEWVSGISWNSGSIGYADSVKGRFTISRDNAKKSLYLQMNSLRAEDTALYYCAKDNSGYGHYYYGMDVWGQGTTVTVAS
T1 sequence (VL, as listed by the source, chain 2 of 2): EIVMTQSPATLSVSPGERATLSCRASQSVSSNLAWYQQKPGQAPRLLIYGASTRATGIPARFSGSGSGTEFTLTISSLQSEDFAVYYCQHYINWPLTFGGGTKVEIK
Procedure: (§1) Kinetic analysis was conducted at 25° C. in an HBSTE running buffer system (Carterra Cat #3630) using a Carterra LSA (Carterra USA, Salt Lake City, UT). The sample compartment was maintained at 20° C. for the duration of each experiment.
(§2) For antibody capture experiments, a goat anti-human Fc antibody (Jackson ImmunoResearch) was covalently coupled to an HC30M sensor chip surface via standard amine coupling (1:1 EDC:NHS) and then blocked with ethanolamine (1.0 M, pH 8.5). Covalent coupling steps were performed in 25 mM MES buffer (Carterra, Cat #3625) plus 0.05% Tween20. The anti-CD3 antibodies (100 nM in running buffer) were flowed over discrete regions of interest on the chip surface for 5 minutes. […] Dissociation of the anti-idiotype antibodies was monitored for 300s. Several blank buffer samples were injected over the entire chip surface at the start of each non-regenerative kinetic cycle. The preceding blank buffer injection was used for blank surface subtraction. At the end of each non-regenerative kinetic cycle, all surfaces were regenerated via two 30s injections of 10 mM glycine, pH 1.7.
(§3) In Tables 10A-10C, anti-CD3 antibodies are listed by ADI number or CTL number in the first column. […] CTL-62223 is mosunetuzumab, CTL-62227 is odronextamab, CTL-62228 is glofitamab, and CTL-62240 is ONO-4685. […] “W.B.” means weak binding under the conditions of this assay and thus a KD was unable to be assigned. “N.B.” means no binding under the conditions of this assay.

CTL-62228 = molecular target: T2, CTL-62228; test: SPR Carterra, CHO anti-ID
T2 construct: also called glofitamab
Procedure: as §1, §2, §3

CTL-62240 = molecular target: T3, CTL-62240; test: SPR Carterra, CHO anti-ID
T3 construct: also called ONO-4685
T3 sequence (VH, as listed by the source, chain 1 of 2): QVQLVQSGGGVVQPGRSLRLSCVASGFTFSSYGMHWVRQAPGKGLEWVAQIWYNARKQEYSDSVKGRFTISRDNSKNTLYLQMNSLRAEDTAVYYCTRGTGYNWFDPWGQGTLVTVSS
T3 sequence (VL, as listed by the source, chain 2 of 2): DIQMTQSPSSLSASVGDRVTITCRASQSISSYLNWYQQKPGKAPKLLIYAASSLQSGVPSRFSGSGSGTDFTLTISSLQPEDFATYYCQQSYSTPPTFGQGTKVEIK
Procedure: as §1, §2, §3

ADI-70326 = molecular target: T4, ADI-70326; test: SPR Carterra, CHO anti-ID
T4 construct: anti-CD3 antibody made in CHO cells, captured by anti-human Fc
T4 sequence (VH, as listed by the source limits assumed, chain 1 of 2): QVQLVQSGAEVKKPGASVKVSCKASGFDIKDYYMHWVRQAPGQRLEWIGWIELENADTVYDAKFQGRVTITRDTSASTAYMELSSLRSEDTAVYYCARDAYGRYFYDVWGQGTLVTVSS
T4 sequence (VL, as listed by the source limits assumed, chain 2 of 2): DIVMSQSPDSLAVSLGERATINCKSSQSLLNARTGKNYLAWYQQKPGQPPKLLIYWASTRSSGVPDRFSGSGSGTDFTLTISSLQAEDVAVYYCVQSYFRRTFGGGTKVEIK
Procedure: as §1, §2, §3

ADI-22523 anti-CD3 bsIgG = molecular target: T5, ADI-22523 anti-CD3 bsIgG (In the assayed molecule VL and VH are joined as one scFv (printed 'Vx-VH' orientation) by an undisclosed linker and fused to an Fc, paired with an anti-HER2 half-IgG. They are given here as two …); test: BLI; tip anti-CD3 bsIgG, solution ADI-34145 IgG
T5 construct: anti-HER2 IgG with one Fab arm replaced by the anti-CD3 scFv (printed 'Vx-VH', read as VL-VH); S354C and Y349C mutations; not shown: scFv linker between VL and VH; anti-HER2 heavy and light chains; hinge and Fc with S354C/Y349C
T5 sequence (VH, as listed by the source limits assumed, chain 1 of 2): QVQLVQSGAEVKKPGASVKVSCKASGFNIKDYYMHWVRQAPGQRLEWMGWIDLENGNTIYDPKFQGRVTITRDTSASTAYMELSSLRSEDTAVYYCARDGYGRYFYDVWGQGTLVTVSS
T5 sequence (VL, as listed by the source limits assumed, chain 2 of 2): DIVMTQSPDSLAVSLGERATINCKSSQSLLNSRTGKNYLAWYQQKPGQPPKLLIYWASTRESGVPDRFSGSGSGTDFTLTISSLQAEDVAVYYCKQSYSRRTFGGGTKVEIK
Procedure: (§4) ForteBio affinity measurements were performed generally as previously described (Estep et al., MAbs. 2013 5(2):270-8). Briefly, ForteBio affinity measurements were performed by loading antibody IgG or Fabs on-line onto AHC sensors. Sensors were equilibrated off-line in assay buffer for 30 minutes and then monitored on-line for 60 seconds for baseline establishment. For avid binding measurement, sensors with loaded antibodies were exposed to IgG or Fab solutions for 3 minutes, afterwards they were transferred to assay buffer for 3 minutes for off-rate measurement. Kinetics data were fit using a 1:1 binding model in the data analysis software provided by ForteBio to obtain equilibrium dissociation constant (KD=koff/kₒₙ) values. In each column, tip-immobilized antibodies are listed first and solution antibodies second.
(§5) Additional analysis was conducted using bispecific antibody formats incorporating anti-CD3 antibody variable domains. Bispecific antibodies were prepared using standard IgG formats (bsIgG) with replacement of Fab arms with anti-CD3 scFvs in Vx-VH orientation and with S354C and Y349C mutations for disulfide stabilization. Antibodies used for Fab arm replacement were anti-HER2 IgG antibodies, with one Fab arm from each replaced by a scFv corresponding to a different anti-CD3 antibody. […] In each column, tip-immobilized antibodies are listed first and solution antibodies second. Anti-CD3 antibodies associated with incorporated scFvs are listed by antibody number.

ADI-26906 anti-CD3 bsIgG = molecular target: T6, ADI-26906 anti-CD3 bsIgG; test: BLI; tip anti-CD3 bsIgG, solution ADI-34145 IgG
T6 construct: anti-HER2 IgG with one Fab arm replaced by the anti-CD3 scFv (printed 'Vx-VH', read as VL-VH); S354C and Y349C mutations; also called anti-CD3 bsIgG (ADI-26906 scFv); not shown: scFv linker; anti-HER2 Fab arm (heavy and light chain); hinge and Fc with S354C/Y349C
T6 sequence (VH, as listed by the source limits assumed, chain 1 of 2): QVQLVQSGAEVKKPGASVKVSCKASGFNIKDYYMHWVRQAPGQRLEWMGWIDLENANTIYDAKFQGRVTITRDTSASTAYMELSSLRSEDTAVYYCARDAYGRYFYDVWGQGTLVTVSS
T6 sequence (VL, as listed by the source limits assumed, chain 2 of 2): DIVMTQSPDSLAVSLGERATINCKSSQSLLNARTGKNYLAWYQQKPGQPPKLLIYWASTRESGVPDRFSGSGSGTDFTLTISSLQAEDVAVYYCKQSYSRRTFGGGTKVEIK
Procedure: as §4, §5

ADI-26913 anti-CD3 bsIgG = molecular target: T7, ADI-26913 anti-CD3 bsIgG; test: BLI; tip anti-CD3 bsIgG, solution ADI-34145 IgG
T7 construct: anti-HER2 IgG with one Fab arm replaced by the anti-CD3 scFv (printed 'Vx-VH', read as VL-VH); S354C and Y349C mutations; also called anti-CD3 bsIgG (ADI-26913 scFv); not shown: scFv linker; anti-HER2 Fab arm (heavy and light chain); hinge and Fc with S354C/Y349C
T7 sequence (VH, as listed by the source limits assumed, chain 1 of 2): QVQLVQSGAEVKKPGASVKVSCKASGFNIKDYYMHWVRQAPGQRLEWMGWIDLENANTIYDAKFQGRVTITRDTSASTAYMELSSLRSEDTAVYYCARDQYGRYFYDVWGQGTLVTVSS
Procedure: as §4, §5

ADI-26916 anti-CD3 bsIgG = molecular target: T8, ADI-26916 anti-CD3 bsIgG; test: BLI; tip anti-CD3 bsIgG, solution ADI-34145 IgG
T8 construct: anti-HER2 IgG with one Fab arm replaced by the anti-CD3 scFv (printed 'Vx-VH', read as VL-VH); S354C and Y349C mutations; also called anti-CD3 bsIgG (ADI-26916 scFv); not shown: scFv linker; anti-HER2 Fab arm (heavy and light chain); hinge and Fc with S354C/Y349C; copies: 1 + 1
T8 sequence (VH, as listed by the source limits assumed, chain 1 of 2): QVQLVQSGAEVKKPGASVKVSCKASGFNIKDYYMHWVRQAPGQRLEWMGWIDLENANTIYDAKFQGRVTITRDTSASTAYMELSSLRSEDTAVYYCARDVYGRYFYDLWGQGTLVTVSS
Procedure: as §4, §5

ADI-26920 anti-CD3 bsIgG = molecular target: T9, ADI-26920 anti-CD3 bsIgG; test: BLI; tip anti-CD3 bsIgG, solution ADI-34145 IgG
T9 construct: anti-HER2 IgG with one Fab arm replaced by the anti-CD3 scFv (printed 'Vx-VH', read as VL-VH); S354C and Y349C mutations; also called anti-CD3 bsIgG (ADI-26920 scFv); not shown: scFv linker; anti-HER2 Fab arm (heavy and light chain); hinge and Fc with S354C/Y349C
T9 sequence (VH, as listed by the source limits assumed, chain 1 of 2): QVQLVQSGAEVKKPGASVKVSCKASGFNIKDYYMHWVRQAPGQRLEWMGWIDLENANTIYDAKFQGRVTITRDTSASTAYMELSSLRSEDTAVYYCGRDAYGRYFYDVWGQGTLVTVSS
T9 sequence (VL, as listed by the source limits assumed, chain 2 of 2): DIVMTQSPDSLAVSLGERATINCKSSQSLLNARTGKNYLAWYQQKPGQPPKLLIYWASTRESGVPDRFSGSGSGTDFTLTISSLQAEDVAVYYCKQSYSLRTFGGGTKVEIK
Procedure: as §4, §5

ADI-26954 anti-CD3 bsIgG = molecular target: T10, ADI-26954 anti-CD3 bsIgG; test: BLI; tip anti-CD3 bsIgG, solution ADI-34145 IgG
T10 construct: anti-HER2 IgG with one Fab arm replaced by the anti-CD3 scFv (printed 'Vx-VH', read as VL-VH); S354C and Y349C mutations; also called anti-CD3 bsIgG (ADI-26954 scFv); not shown: scFv linker; anti-HER2 Fab arm (heavy and light chain); hinge and Fc with S354C/Y349C
T10 sequence (VH, as listed by the source limits assumed, chain 1 of 2): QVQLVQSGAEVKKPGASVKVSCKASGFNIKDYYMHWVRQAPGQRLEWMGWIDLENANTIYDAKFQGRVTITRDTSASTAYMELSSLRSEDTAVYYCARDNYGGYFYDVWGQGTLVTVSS
T10 sequence (VL, as listed by the source limits assumed, chain 2 of 2): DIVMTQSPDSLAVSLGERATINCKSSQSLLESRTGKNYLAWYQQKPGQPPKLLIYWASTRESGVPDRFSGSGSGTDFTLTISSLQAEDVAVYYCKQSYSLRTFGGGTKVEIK
Procedure: as §4, §5

| Binder | binding result (CTL-62227) | binding result (CTL-62228) | binding result (CTL-62240) | binding result (ADI-70326) | Kd (ADI-22523 anti-CD3 bsIgG) [nM] | Kd (ADI-26906 anti-CD3 bsIgG) [nM] | Kd (ADI-26913 anti-CD3 bsIgG) [nM] | Kd (ADI-26916 anti-CD3 bsIgG) [nM] | Kd (ADI-26920 anti-CD3 bsIgG) [nM] | Kd (ADI-26954 anti-CD3 bsIgG) [nM] |
| --- | --- | --- | --- | --- | --- | --- | --- | --- | --- | --- |
| B1 | no binding (tested: up to 200 nM) | no binding (tested: up to 200 nM) | no binding (tested: up to 200 nM) | – | – | – | – | – | – | – |
| B2 | – | – | – | no binding (tested: up to 200 nM) | 9.13 | 13.4 | 14.7 | 57.1 | 6.72 | 27.8 |
